The assay addresses chimeric OX40 construct 1549: Human OX40 with mouse domains 1A and 4B and region non-annotated extracellular region (aa 30-65 and aa 127-214) (human; mouse) (UniProt P47741). As to the kind of experiment: flow cytometry, transfected 293-F cells.

The results in this text go back to patent US20200048358A1.

B1: anti-OX40 antibody 1170/1171 (antibody, V domains shown)
VH: EVQLLESGGGLVQPGGSLRLSCAASGFTFGGYYMSWVRQAPGKGLEWVSYIPGSGGSTYYADSVKGRFTISRDNSKNTLYLQMNSLRAEDTAVYYCARYDYYWMDYWGQGTLVTVSS
VL: DIQMTQSPSSLSASVGDRVTITCRASQSISSYLNWYQQKPGKAPKLLIYAASSLQSGVPSRFSGSGSGTDFTLTISSLQPEDFATYYCQQGHGSYPHTFGQGTKLEIK
In turn, B1 gave a relative MFI compared to isotype control of 12.1.

B2: anti-OX40 antibody 1526/1527 (antibody, V domains shown)
VH: EVQLLESGGGLVQPGGSLRLSCAASGFTFSGYSMYWVRQAPGKGLEWVSGIGYSGYGTYYADSVKGRFTISRDNSKNTLYLQMNSLRAEDTAVYYCARYYFHDYAAYSLDYWGQGTLVTVSS
VL: DIQMTQSPSSLSASVGDRVTITCRASQSISSYLNWYQQKPGKAPKLLIYAASSLQSGVPSRFSGSGSGTDFTLTISSLQPEDFATYYCQQYGSDSLLTFGQGTKLEIK
Take B2: the relative MFI compared to isotype control was determined as 8.5.

B3: anti-OX40 antibody 1524/1525 (antibody, V domains shown)
VH: EVQLLESGGGLVQPGGSLRLSCAASGFTFGSYYMGWVRQAPGKGLEWVSSIGSYYGYTYYADSVKGRFTISRDNSKNTLYLQMNSLRAEDTAVYYCARHDYGALDYWGQGTLVTVSS
VL: DIQMTQSPSSLSASVGDRVTITCRASQSISSYLNWYQQKPGKAPKLLIYAASSLQSGVPSRFSGSGSGTDFTLTISSLQPEDFATYYCQQYGPSGLFTFGQGTKLEIK
Molecule B3 yielded a relative MFI compared to isotype control of 11.2.

B4: anti-OX40 antibody 1166/1167 (antibody, V domains shown)
VH: EVQLLESGGGLVQPGGSLRLSCAASGFTFGGYYMSWVRQAPGKGLEWVSAISGSGGSTYYADSVKGRFTISRDNSKNTLYLQMNSLRAEDTAVYYCARYDYASMDYWGQGTLVTVSS
VL: DIQMTQSPSSLSASVGDRVTITCRASQSISSYLNWYQQKPGKAPKLLIYAASSLQSGVPSRFSGSGSGTDFTLTISSLQPEDFATYYCQQYYWYGLSTFGQGTKLEIK
B4 yielded a relative MFI compared to isotype control of 11.3.

B5: anti-OX40 antibody 1514/1515 (antibody, V domains shown)
VH: EVQLLESGGGLVQPGGSLRLSCAASGFTFGYYYMSWVRQAPGKGLEWVSGISSYGSYTYYADSVKGRFTISRDNSKNTLYLQMNSLRAEDTAVYYCARSGYSNWANSFDYWGQGTLVTVSS
VL: DIQMTQSPSSLSASVGDRVTITCRASQSISSYLNWYQQKPGKAPKLLIYAASSLQSGVPSRFSGSGSGTDFTLTISSLQPEDFATYYCQQGDYTLFTFGQGTKLEIK
Consider B5, for which the relative MFI compared to isotype control is 10.6.

B6: anti-OX40 antibody 1482/1483 (antibody, V domains shown)
VH: EVQLLESGGGLVQPGGSLRLSCAASGFTFSSYAMSWVRQAPGKGLEWVSYISYYSGYTYYADSVKGRFTISRDNSKNTLYLQMNSLRAEDTAVYYCARGYGYLDYWGQGTLVTVSS
VL: DIQMTQSPSSLSASVGDRVTITCRASQSISSYLNWYQQKPGKAPKLLIYAASSLQSGVPSRFSGSGSGTDFTLTISSLQPEDFATYYCQQYGSLLTFGQGTKLEIK
With B6, the relative MFI compared to isotype control worked out at 8.7.
